Test results published in publication PMC3366955.

What was measured:
[1] = SEC-MALS
[2] = biological target: recombinant 42 kDa processed form of the P. falciparum merozoite surface protein 1, FVO allele (MSP1_(42)-FVO) (Plasmodium falciparum); experiment: SEC-MALS

Substance | percent of the total peak area as aggregate [1] | percent of the protein as dimers [2] | percent of the protein as multimers [2] | stoichiometry N [2]
recombinant 42 kDa processed form of the P. falciparum merozoite surface protein 1, FVO allele (MSP1_(42)-FVO) | approximately 1.7 MDa for 96% of the total peak area |  |  | 
recombinant 42 kDa processed form of the P. falciparum merozoite surface protein 1, FVO allele (MSP1_(42)-FVO) (domain or fragment) |  | 72% | 28% | 2
